From patent US20200299408A1 (Genentech, published 2020) come the findings set out here.

Assay [1] addresses T1, single chain human CD3ε-26mer-CD3γ (CD3εγ) (human).
T1 construct: also called human CD3εγ
T1 chain: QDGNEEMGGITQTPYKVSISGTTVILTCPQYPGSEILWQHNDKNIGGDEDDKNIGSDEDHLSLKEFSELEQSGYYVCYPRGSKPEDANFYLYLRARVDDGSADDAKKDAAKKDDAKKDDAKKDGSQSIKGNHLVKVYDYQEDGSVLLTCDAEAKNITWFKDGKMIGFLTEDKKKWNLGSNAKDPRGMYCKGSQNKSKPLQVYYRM
The assay can be described thus: Biacore single cycle kinetics: Fab captured by anti-human Fab, human CD3εγ injected (3-250 nM). The text has this: (§1) In addition, position 95 in HVR-H3 was also mutated to serine, threonine, or glutamate. Variants with these single point mutations were expressed as Fabs in HEK293 cells and initially screened with a single cycle kinetics method on a Biacore T100. Selected variants were also scaled up and purified for a conventional multi-cycle kinetics method. For single cycle kinetics, Biacore Series S CM5 sensor chips were immobilized with anti-human Fab antibodies (Human Fab capture kit, GE Healthcare). […] For conventional multi-cycle kinetics, human CD3εγ, cyno CD3εγ, or a 27-mer peptide were immobilized on Biacore Series S CM5 sensor chip using the amine coupling kit from Biacore. Serial 3-fold dilutions of each Fab variant were injected at a flow rate of 30 μl/min. Each sample was analyzed with a protocol of 3-minute association and 3-minute dissociation. In both methods, the Biacore chips were regenerated using 10 mM Glycine (pH 1.7). Binding response was corrected by blank subtraction and a 1:1Languir model of simultaneous fitting of kₒₙ and koff was used for kinetics analysis.

The target of assay [2] is T1, single chain human CD3ε-26mer-CD3γ …. Put plainly: Biacore single cycle kinetics; KD relative to hu38E4.v1.
Text: as §1

Assay [3] shares this target. The assay can be described thus: Biacore full (multi-) cycle kinetics; KD relative to hu38E4.v1.
Text: as §1

The target is the same in assay [4]. The assay can be described thus: Biacore full (multi-) cycle kinetics: antigen on chip, Fab injected; antigen not named on the sheet, taken as human CD3εγ.
Text: as §1

In assay [5] the target is T2, commercial CD3ε (Creative Biomart, Catalog Number CD3E-2194H) (human, UniProt P07766).
T2 construct: commercial recombinant protein; also called commercial CD3E
The assay can be described thus: binding affinity on commercial CD3ε (Creative Biomart CD3E-2194H); method not stated in the legend.

Assay [6] has as its target T3, Commercial hCD3eg.
T3 chain 1: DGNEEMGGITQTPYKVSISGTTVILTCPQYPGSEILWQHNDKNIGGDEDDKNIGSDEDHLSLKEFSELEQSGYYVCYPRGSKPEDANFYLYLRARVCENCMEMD
T3 chain 2: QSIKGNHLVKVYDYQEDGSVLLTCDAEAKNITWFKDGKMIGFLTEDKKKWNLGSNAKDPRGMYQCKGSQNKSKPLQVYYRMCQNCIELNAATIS
Put plainly: mu IgG against commercial hCD3eg; method not stated on the sheet.

B1: hu38E4.v1 H3 mutant D101A (Fab, V domains shown)
VH: EVQLVQSGAEVKKPGASVKVSCKASGFTFTSYYIHWVRQAPGQGLEWIGWIYPENDNTKYNEKFKDRVTITADTSTSTAYLELSSLRSEDTAVYYCARDGYSRYYFAYWGQGTLVTVSS
VL: DIVMTQSPDSLAVSLGERATINCKSSQSLLNSRTRKNYLAWYQQKPGQSPKLLIYWTSTRKSGVPDRFSGSGSGTDFTLTISSLQAEDVAVYYCKQSFILRTFGQGTKVEIK
notes: copies: 1 + 1
In assay [1], B1 showed a Kd of 24.1 nM, a dissociation rate constant (koff) of 0.00342 s⁻¹ and a kon of 142000 M⁻¹ s⁻¹. In addition, the “ratio (fold)” value in assay [2] was 7.2 fold.

B2: hu38E4.v1 L3 mutant Q90A (Fab, V domains shown)
VH: EVQLVQSGAEVKKPGASVKVSCKASGFTFTSYYIHWVRQAPGQGLEWIGWIYPENDNTKYNEKFKDRVTITADTSTSTAYLELSSLRSEDTAVYYCARDGYSRYYFDYWGQGTLVTVSS
VL: DIVMTQSPDSLAVSLGERATINCKSSQSLLNSRTRKNYLAWYQQKPGQSPKLLIYWTSTRKSGVPDRFSGSGSGTDFTLTISSLQAEDVAVYYCKASFILRTFGQGTKVEIK
notes: copies: 1 + 1
In the case of B2, in assay [3], the “ratio (fold)” value came out at 29.9 fold. Further, in assay [4], binding was put at a Kd of 23.8 nM, the koff was determined as 0.00422 s⁻¹ and the kon came out at 178000 M⁻¹ s⁻¹.

B3: hu38E4.v1 H3 mutant S98A (Fab, V domains shown)
VH: EVQLVQSGAEVKKPGASVKVSCKASGFTFTSYYIHWVRQAPGQGLEWIGWIYPENDNTKYNEKFKDRVTITADTSTSTAYLELSSLRSEDTAVYYCARDGYARYYFDYWGQGTLVTVSS
VL: DIVMTQSPDSLAVSLGERATINCKSSQSLLNSRTRKNYLAWYQQKPGQSPKLLIYWTSTRKSGVPDRFSGSGSGTDFTLTISSLQAEDVAVYYCKQSFILRTFGQGTKVEIK
notes: copies: 1 + 1
In the case of B3, in assay [1], the Kd was found to be 3.8 nM, the koff worked out at 0.00147 s⁻¹ and the on-rate (kon) was 385000 M⁻¹ s⁻¹. Moreover, the “ratio (fold)” value in assay [2] worked out at 1.1 fold.

B4: hu38E4.v1 L3 mutant K89A (Fab, V domains shown)
VH: EVQLVQSGAEVKKPGASVKVSCKASGFTFTSYYIHWVRQAPGQGLEWIGWIYPENDNTKYNEKFKDRVTITADTSTSTAYLELSSLRSEDTAVYYCARDGYSRYYFDYWGQGTLVTVSS
VL: DIVMTQSPDSLAVSLGERATINCKSSQSLLNSRTRKNYLAWYQQKPGQSPKLLIYWTSTRKSGVPDRFSGSGSGTDFTLTISSLQAEDVAVYYCAQSFILRTFGQGTKVEIK
notes: copies: 1 + 1
In assay [1], B4 registered a dissociation constant (Kd) of 2.4 nM, a dissociation rate constant (koff) of 0.00102 s⁻¹ and a kon of 428000 M⁻¹ s⁻¹. Also, the “ratio (fold)” value in assay [2] is 0.7 fold.

B5: hu38E4.v1 H3 mutant Y102A (Fab, V domains shown)
VH: EVQLVQSGAEVKKPGASVKVSCKASGFTFTSYYIHWVRQAPGQGLEWIGWIYPENDNTKYNEKFKDRVTITADTSTSTAYLELSSLRSEDTAVYYCARDGYSRYYFDAWGQGTLVTVSS
VL: DIVMTQSPDSLAVSLGERATINCKSSQSLLNSRTRKNYLAWYQQKPGQSPKLLIYWTSTRKSGVPDRFSGSGSGTDFTLTISSLQAEDVAVYYCKQSFILRTFGQGTKVEIK
notes: copies: 1 + 1
In the case of B5, in assay [1], the affinity, expressed as Kd, was 4.1 nM; the off-rate (koff) was found to be 0.00132 s⁻¹; the kon came out at 322000 M⁻¹ s⁻¹. For the same molecule, in assay [2], the “ratio (fold)” value came to 1.2 fold.

B6: murine SP34 (antibody, V domains shown)
VH: EVQLVESGGGLVQPKGSLKLSCAASGFTFNTYAMNWVRQAPGKGLEWVARIRSKYNNYATYYADSVKDRFTISRDDSQSILYLQMNNLKTEDTAMYYCVRHGNFGNSYVSWFAYWGQGTLVTVSS
VL: QAVVTQESALTTSPGETVTLTCRSSTGAVTTSNYANWVQEKPDHLFTGLIGGTNKRAPGVPARFSGSLIGDKAALTITGAQTEDEAIYFCALWYSNLWVFGGGTKLTVL
B6 came in with a Kd in assay [5] of 7 nM.

B7: humanized SP34 variant: λ7 graft + F36V + T46G + Y49G / VH3 graft + N73D + T93V (antibody, V domains shown)
VH: EVQLVESGGGLVQPGGSLRLSCAASGFTFNTYAMNWVRQAPGKGLEWVGRIRSKYNNYATYYADSVKDRFTISRDDSKNTLYLQMNSLRAEDTAVYYCVRHGNFGNSYVSWFAYWGQGTLVTVSS
VL: EAVVTQEPSLTVSPGGTVTLTCRSSTGAVTTSNYANWVQQKPGQAPRGLIGGTNKRAPWTPARFSGSLLGGKAALTLSGAQPEDEAEYYCALWYSNLWVFGGGTKLTVL
The molecule B7 had a Kd in assay [5] of 3.5 nM.

B8: humanized SP34 variant: λ7 graft + F36V + Q38E + A43L + P44F + T46G + Y49G + T58V + Y87F / VH3 graft + G49A + T93V (antibody, V domains shown)
VH: EVQLVESGGGLVQPGGSLRLSCAASGFTFNTYAMNWVRQAPGKGLEWVARIRSKYNNYATYYADSVKDRFTISRDNSKNTLYLQMNSLRAEDTAVYYCVRHGNFGNSYVSWFAYWGQGTLVTVSS
VL: EAVVTQEPSLTVSPGGTVTLTCRSSTGAVTTSNYANWVQEKPGQLFRGLIGGTNKRAPWVPARFSGSLLGGKAALTLSGAQPEDEAEYFCALWYSNLWVFGGGTKLTVL
Molecule B8 yielded a Kd in assay [5] of 21 nM.

B9: humanized SP34 variant: λ7 graft + F36V + T46G + Y49G / VH3 graft G49A + N73D + T93V (antibody, V domains shown)
VH: EVQLVESGGGLVQPGGSLRLSCAASGFTFNTYAMNWVRQAPGKGLEWVARIRSKYNNYATYYADSVKDRFTISRDDSKNTLYLQMNSLRAEDTAVYYCVRHGNFGNSYVSWFAYWGQGTLVTVSS
VL: EAVVTQEPSLTVSPGGTVTLTCRSSTGAVTTSNYANWVQQKPGQAPRGLIGGTNKRAPWTPARFSGSLLGGKAALTLSGAQPEDEAEYYCALWYSNLWVFGGGTKLTVL
Consider B9, for which the affinity in assay [5], expressed as Kd, was 14.5 nM.

B10: humanized SP34 variant: λ7 graft + F36V + Q38E + A43L + P44F + T46G + Y49G + T58V + Y87F / VH3 graft + N73D + T93V (antibody, V domains shown)
VH: EVQLVESGGGLVQPGGSLRLSCAASGFTFNTYAMNWVRQAPGKGLEWVGRIRSKYNNYATYYADSVKDRFTISRDDSKNTLYLQMNSLRAEDTAVYYCVRHGNFGNSYVSWFAYWGQGTLVTVSS
VL: EAVVTQEPSLTVSPGGTVTLTCRSSTGAVTTSNYANWVQEKPGQLFRGLIGGTNKRAPWVPARFSGSLLGGKAALTLSGAQPEDEAEYFCALWYSNLWVFGGGTKLTVL
As to B10, binding in assay [5] was put at a Kd of 3.1 nM.

B11: humanized SP34 variant: λ7 graft + F36V + T46G + Y49G / VH3 graft + T93V (antibody, V domains shown)
VH: EVQLVESGGGLVQPGGSLRLSCAASGFTFNTYAMNWVRQAPGKGLEWVGRIRSKYNNYATYYADSVKDRFTISRDNSKNTLYLQMNSLRAEDTAVYYCVRHGNFGNSYVSWFAYWGQGTLVTVSS
VL: EAVVTQEPSLTVSPGGTVTLTCRSSTGAVTTSNYANWVQQKPGQAPRGLIGGTNKRAPWTPARFSGSLLGGKAALTLSGAQPEDEAEYYCALWYSNLWVFGGGTKLTVL
B11: binding in assay [5] was put at a Kd of 15.9 nM.

B12: humanized SP34 variant: λ7 graft + F36V + Q38E + A43L + P44F + T46G + Y49G + T58V + Y87F / VH3 graft G49A + N73D + T93V (antibody, V domains shown)
VH: EVQLVESGGGLVQPGGSLRLSCAASGFTFNTYAMNWVRQAPGKGLEWVARIRSKYNNYATYYADSVKDRFTISRDDSKNTLYLQMNSLRAEDTAVYYCVRHGNFGNSYVSWFAYWGQGTLVTVSS
VL: EAVVTQEPSLTVSPGGTVTLTCRSSTGAVTTSNYANWVQEKPGQLFRGLIGGTNKRAPWVPARFSGSLLGGKAALTLSGAQPEDEAEYFCALWYSNLWVFGGGTKLTVL
Molecule B12 showed an equilibrium dissociation constant (Kd) in assay [5] of 8 nM.

B13: 30A1 (antibody, IgG1, V domains shown)
VH: QVQLKESGPGLVAPSQSLSITCTVSGFSLTNYAIHWVRQPPGKGLDWLGVIWAGGNTKYNSALMSRLSFSKDNSKSQVFLEINSLQTDDTAMYYCAREDSSGYVALDYWGQGTSVTVSS
VL: NIVMTQSPSSLAVSAGEKVTMSCKSSQSLLSGRTRKNYLAWYQQKPGQSPKLLIYWASTRESGVPDRFTGSGSGTDFTLTISSVQAEDLAVYYCKQSYYLLTFGAGTKLELK
notes: mouse hybridoma clone
With B13, the dissociation constant Kd in assay [6] is 0.4 nM.

B14: 13A3 (antibody, IgG2b, V domains shown)
VH: EVQLQQSGPELVKPGASVRISCKASGYTFTSYYIHWMKQRPGQGLEWIGWIYPGNVNTKYNEKFKGKATLTADNSSSTANMQLSSLTSEDSAVYFCARNHDYYFDYWGQGTTLTVSS
VL: DIVLTQSPSSLAVSAGEKVTMSCKSSQSLLNSRTRKNYLAWYQQKPGQSPKLLIYWASTRESGVPDRFTGSGSGTDFTLTISSVQAEDLAVYYCKQSYILRTFGGGTKLEIK
notes: mouse hybridoma clone; also called 13A3 (xCD3)
On to B14, for which binding in assay [6] was characterised by a dissociation constant (Kd) of 0.6 nM.
